In publication PMC9929448:

Experiments:
[1] = target: Noggin (residues 28-232) (human (from the UniProt entry Q13253)) (UniProt Q13253); test: BLI; biotinylated Noggin (4 ug/mL) immobilised on streptavidin-coated biosensors, BMP-2 1 to 22.8 nM in solution; 30 °C; 50 mM sodium citrate pH 6.8, 150 mM NaCl, 1 mM magnesium acetate, 0.02% CHAPS; 1:1 interaction model; three repetitions
[2] = target: T1, Bone morphogenetic protein 2 (BMP-2), wild type, mature form (human); test: SDS-PAGE under reducing and nonreducing conditions; purified, refolded protein on 4 to 20% SDS-PAGE, Coomassie blue; covalent (disulphide) dimer
T1 sequence (P12643 whole entry, looked up): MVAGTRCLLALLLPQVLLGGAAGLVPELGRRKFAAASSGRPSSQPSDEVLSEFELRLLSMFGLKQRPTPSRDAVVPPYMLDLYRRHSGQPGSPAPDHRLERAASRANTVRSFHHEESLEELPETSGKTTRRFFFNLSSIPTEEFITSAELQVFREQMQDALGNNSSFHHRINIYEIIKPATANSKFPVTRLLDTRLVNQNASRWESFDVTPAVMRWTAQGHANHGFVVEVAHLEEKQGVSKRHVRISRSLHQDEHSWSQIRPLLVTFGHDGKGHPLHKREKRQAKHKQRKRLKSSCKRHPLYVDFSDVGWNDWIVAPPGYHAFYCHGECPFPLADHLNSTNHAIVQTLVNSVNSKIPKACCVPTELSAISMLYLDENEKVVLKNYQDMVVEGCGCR

Noggin (Homo sapiens) = Noggin (Homo sapiens) (UniProt Q13253); test: SPR; details: cited from earlier work
[3] = target: BMP-2 N102D mutant, mature form (human); test: SDS-PAGE under reducing and nonreducing conditions; purified, refolded protein on 4 to 20% SDS-PAGE, Coomassie blue; covalent (disulphide) dimer

Chain of Noggin (residues 28-232) (human (Q13253 other isoform, or with tags, fused parts or gaps): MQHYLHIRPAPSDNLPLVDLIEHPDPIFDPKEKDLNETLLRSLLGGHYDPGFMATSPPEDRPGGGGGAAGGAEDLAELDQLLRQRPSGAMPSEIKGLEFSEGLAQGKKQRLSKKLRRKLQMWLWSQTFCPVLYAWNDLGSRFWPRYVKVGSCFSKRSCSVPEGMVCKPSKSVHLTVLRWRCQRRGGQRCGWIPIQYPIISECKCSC
Chain of Noggin (Homo sapiens) (Q13253 28-232): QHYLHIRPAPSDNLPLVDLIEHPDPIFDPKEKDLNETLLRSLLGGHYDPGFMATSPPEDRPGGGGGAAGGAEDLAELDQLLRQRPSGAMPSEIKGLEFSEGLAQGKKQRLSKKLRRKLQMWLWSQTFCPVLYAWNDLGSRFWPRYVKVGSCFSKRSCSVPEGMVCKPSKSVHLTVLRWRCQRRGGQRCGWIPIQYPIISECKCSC

Kd [1] [nM]	koff [1] [s⁻¹]	kon [1] [M⁻¹ s⁻¹]	stoichiometry N [1]	stoichiometry N [2]	stoichiometry N [3]	Substance	Kd (Noggin (Homo sapiens)) [nM]
0.36	0.00042	1.2e+06	1	2	–	Bone morphogenetic protein 2 (BMP-2), wild type, mature form (ligand)	–
–	–	–	–	–	–	BMP-2 (from UniProt P12643)	0.6
0.3	0.0007	2.3e+06	–	–	2	BMP-2 N102D mutant, mature form (ligand)	–
